Experimental data published in the supplement of paper PMC9112550, “Optimization of the antimicrobial peptide Bac7 by deep mutational scanning” (BMC Biology, 2022).

Test system: Escherichia coli TOP10
Assay: shrunken log2 fold change of peptide-encoding DNA abundance (4.5 h post-induction vs induction); higher = less antimicrobial activity (less host growth inhibition)
Conditions: time post-induction: 4.5 h; library: site-saturation at positions 5, 18, 19, 20
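Note: peptides expressed intracellularly from a pBAD plasmid library in pooled LB shake-flask culture, induced with 0.3% L-arabinose, DNA abundance read by NGS, three biological replicates, DESeq2 with apeglm shrinkage.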

RRIRRRPPRLPRPRPRPQDWPRP
shrunken log2 fold change: 0.171

RRIRRRPPRLPRPRPRPQEKPRP
shrunken log2 fold change: 0.0332

RRIRRRPPRLPRPRPRPQFKPRP
shrunken log2 fold change: -0.145

RRIRRRPPRLPRPRPRPQGEPRP
shrunken log2 fold change: 0.373

RRIRRRPPRLPRPRPRPQGTPRP
shrunken log2 fold change: 0.294

RRIRRRPPRLPRPRPRPQHEPRP
shrunken log2 fold change: 0.343

RRIRRRPPRLPRPRPRPQIDPRP
shrunken log2 fold change: 0.332

RRIRRRPPRLPRPRPRPQIIPRP
shrunken log2 fold change: -0.0755

RRIRRRPPRLPRPRPRPQINPRP
shrunken log2 fold change: 0.0135

RRIRRRPPRLPRPRPRPQLHPRP
shrunken log2 fold change: -0.00676

RRIRRRPPRLPRPRPRPQLNPRP
shrunken log2 fold change: 0.159

RRIRRRPPRLPRPRPRPQLSPRP
shrunken log2 fold change: 0.976

RRIRRRPPRLPRPRPRPQMNPRP
shrunken log2 fold change: -0.107

RRIRRRPPRLPRPRPRPQMRPRP
shrunken log2 fold change: 1.05

RRIRRRPPRLPRPRPRPQMSPRP
shrunken log2 fold change: 0.0441

RRIRRRPPRLPRPRPRPQMTPRP
shrunken log2 fold change: 0.238

RRIRRRPPRLPRPRPRPQNDPRP
shrunken log2 fold change: -0.212

RRIRRRPPRLPRPRPRPQPGPRP
shrunken log2 fold change: 0.264

RRIRRRPPRLPRPRPRPQRRPRP
shrunken log2 fold change: 0.482

RRIRRRPPRLPRPRPRPQTHPRP
shrunken log2 fold change: 0.361

RRIRRRPPRLPRPRPRPQTRPRP
shrunken log2 fold change: 0.511

RRIRRRPPRLPRPRPRPQVLPRP
shrunken log2 fold change: 0.0646

RRIRRRPPRLPRPRPRPQYMPRP
shrunken log2 fold change: -0.234

RRIRRRPPRLPRPRPRPQYNPRP
shrunken log2 fold change: -0.224

RRIRRRPPRLPRPRPRPRAIPRP
shrunken log2 fold change: 0.405

RRIRRRPPRLPRPRPRPRAQPRP
shrunken log2 fold change: 0.5

RRIRRRPPRLPRPRPRPRDGPRP
shrunken log2 fold change: 0.731

RRIRRRPPRLPRPRPRPRECPRP
shrunken log2 fold change: -0.12

RRIRRRPPRLPRPRPRPREYPRP
shrunken log2 fold change: 0.2

RRIRRRPPRLPRPRPRPRFMPRP
shrunken log2 fold change: 0.055

RRIRRRPPRLPRPRPRPRFSPRP
shrunken log2 fold change: 0.425

RRIRRRPPRLPRPRPRPRGHPRP
shrunken log2 fold change: 2.95

RRIRRRPPRLPRPRPRPRGLPRP
shrunken log2 fold change: 0.396

RRIRRRPPRLPRPRPRPRHYPRP
shrunken log2 fold change: 0.279

RRIRRRPPRLPRPRPRPRISPRP
shrunken log2 fold change: 0.482

RRIRRRPPRLPRPRPRPRIVPRP
shrunken log2 fold change: 0.00997

RRIRRRPPRLPRPRPRPRKAPRP
shrunken log2 fold change: 0.885

RRIRRRPPRLPRPRPRPRKIPRP
shrunken log2 fold change: 0.405

RRIRRRPPRLPRPRPRPRLDPRP
shrunken log2 fold change: 0.347

RRIRRRPPRLPRPRPRPRMGPRP
shrunken log2 fold change: 0.136

RRIRRRPPRLPRPRPRPRPTPRP
shrunken log2 fold change: 0.821

RRIRRRPPRLPRPRPRPRQCPRP
shrunken log2 fold change: 0.596

RRIRRRPPRLPRPRPRPRRPPRP
shrunken log2 fold change: 0.639

RRIRRRPPRLPRPRPRPRSFPRP
shrunken log2 fold change: 0.401

RRIRRRPPRLPRPRPRPRSWPRP
shrunken log2 fold change: 0.648

RRIRRRPPRLPRPRPRPRVAPRP
shrunken log2 fold change: 0.875

RRIRRRPPRLPRPRPRPRYDPRP
shrunken log2 fold change: 0.0442

RRIRRRPPRLPRPRPRPRYGPRP
shrunken log2 fold change: 0.0155

RRIRRRPPRLPRPRPRPSALPRP
shrunken log2 fold change: 0.392

RRIRRRPPRLPRPRPRPSDMPRP
shrunken log2 fold change: -0.463

RRIRRRPPRLPRPRPRPSEVPRP
shrunken log2 fold change: 1.94

RRIRRRPPRLPRPRPRPSFTPRP
shrunken log2 fold change: 0.0475

RRIRRRPPRLPRPRPRPSGEPRP
shrunken log2 fold change: 0.387

RRIRRRPPRLPRPRPRPSGLPRP
shrunken log2 fold change: 0.00401

RRIRRRPPRLPRPRPRPSHDPRP
shrunken log2 fold change: -0.00919

RRIRRRPPRLPRPRPRPSKMPRP
shrunken log2 fold change: 0.335

RRIRRRPPRLPRPRPRPSKRPRP
shrunken log2 fold change: -0.0523

RRIRRRPPRLPRPRPRPSLAPRP
shrunken log2 fold change: 0.89

RRIRRRPPRLPRPRPRPSLDPRP
shrunken log2 fold change: 0.34

RRIRRRPPRLPRPRPRPSMRPRP
shrunken log2 fold change: 0.557

RRIRRRPPRLPRPRPRPSNAPRP
shrunken log2 fold change: 0.204

RRIRRRPPRLPRPRPRPSNCPRP
shrunken log2 fold change: -0.252

RRIRRRPPRLPRPRPRPSNNPRP
shrunken log2 fold change: -0.303

RRIRRRPPRLPRPRPRPSNYPRP
shrunken log2 fold change: -0.169

RRIRRRPPRLPRPRPRPSSTPRP
shrunken log2 fold change: 0.197

RRIRRRPPRLPRPRPRPSVAPRP
shrunken log2 fold change: 0.478

RRIRRRPPRLPRPRPRPSVGPRP
shrunken log2 fold change: 0.171

RRIRRRPPRLPRPRPRPSVSPRP
shrunken log2 fold change: -0.0175

RRIRRRPPRLPRPRPRPSVWPRP
shrunken log2 fold change: 0.703

RRIRRRPPRLPRPRPRPSWAPRP
shrunken log2 fold change: 0.157

RRIRRRPPRLPRPRPRPSYDPRP
shrunken log2 fold change: -0.434

RRIRRRPPRLPRPRPRPSYHPRP
shrunken log2 fold change: -0.368

RRIRRRPPRLPRPRPRPSYMPRP
shrunken log2 fold change: -0.257

RRIRRRPPRLPRPRPRPTDSPRP
shrunken log2 fold change: 0.485

RRIRRRPPRLPRPRPRPTENPRP
shrunken log2 fold change: 0.464

RRIRRRPPRLPRPRPRPTEQPRP
shrunken log2 fold change: -0.0468

RRIRRRPPRLPRPRPRPTERPRP
shrunken log2 fold change: 0.409

RRIRRRPPRLPRPRPRPTEWPRP
shrunken log2 fold change: 0.446

RRIRRRPPRLPRPRPRPTFQPRP
shrunken log2 fold change: 0.204

RRIRRRPPRLPRPRPRPTGCPRP
shrunken log2 fold change: 0.0105

RRIRRRPPRLPRPRPRPTGMPRP
shrunken log2 fold change: 0.906

RRIRRRPPRLPRPRPRPTGSPRP
shrunken log2 fold change: 0.302

RRIRRRPPRLPRPRPRPTHVPRP
shrunken log2 fold change: 0.427

RRIRRRPPRLPRPRPRPTIRPRP
shrunken log2 fold change: 0.129

RRIRRRPPRLPRPRPRPTIVPRP
shrunken log2 fold change: -0.111

RRIRRRPPRLPRPRPRPTLYPRP
shrunken log2 fold change: 0.595

RRIRRRPPRLPRPRPRPTMIPRP
shrunken log2 fold change: -0.195

RRIRRRPPRLPRPRPRPTNDPRP
shrunken log2 fold change: 0.263

RRIRRRPPRLPRPRPRPTNFPRP
shrunken log2 fold change: -0.125

RRIRRRPPRLPRPRPRPTPCPRP
shrunken log2 fold change: 0.774

RRIRRRPPRLPRPRPRPTPDPRP
shrunken log2 fold change: 0.72

RRIRRRPPRLPRPRPRPTPNPRP
shrunken log2 fold change: 0.945

RRIRRRPPRLPRPRPRPTQKPRP
shrunken log2 fold change: 0.788

RRIRRRPPRLPRPRPRPTQQPRP
shrunken log2 fold change: 0.707

RRIRRRPPRLPRPRPRPTQTPRP
shrunken log2 fold change: 0.338

RRIRRRPPRLPRPRPRPTRFPRP
shrunken log2 fold change: 1.08

RRIRRRPPRLPRPRPRPTRKPRP
shrunken log2 fold change: 0.498

RRIRRRPPRLPRPRPRPTRSPRP
shrunken log2 fold change: 0.341

RRIRRRPPRLPRPRPRPTRVPRP
shrunken log2 fold change: 0.952

RRIRRRPPRLPRPRPRPTSTPRP
shrunken log2 fold change: 0.158

RRIRRRPPRLPRPRPRPTSVPRP
shrunken log2 fold change: 0.227

RRIRRRPPRLPRPRPRPTTGPRP
shrunken log2 fold change: -0.00353

RRIRRRPPRLPRPRPRPTTQPRP
shrunken log2 fold change: 0.356

RRIRRRPPRLPRPRPRPTVDPRP
shrunken log2 fold change: 0.615

RRIRRRPPRLPRPRPRPTVQPRP
shrunken log2 fold change: 0.113

RRIRRRPPRLPRPRPRPTVRPRP
shrunken log2 fold change: -0.00514

RRIRRRPPRLPRPRPRPTWMPRP
shrunken log2 fold change: 0.174

RRIRRRPPRLPRPRPRPTYAPRP
shrunken log2 fold change: 0.218

RRIRRRPPRLPRPRPRPVEAPRP
shrunken log2 fold change: 0.118
